± gives the standard deviation of the averaged measurements.
B1: library; numbered along this chain (parent)
chain: MNIQIGELAKRTACPVVTIRFYEQEGLLPPPGRSRGNFRLYGEEHVERLQFIRHCRSLDMPLSDVRTLLSYRKRPDQDCGEVNMLLDEHIRQVESRIGALLELKHHLVELREACSGARPAQSCGILQGLSDCVCDTRGTTAHPSD

How the values were obtained:
[1] = variants of: B1; assay: sfGFP reporter fluorescence (15 h) (µM FITC); higher = higher leak; settings: library round: Round 0; ligand: none
Summary of the method: (§1)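 Values are endpoint sfGFP fluorescence given as µM FITC equivalents. Fluorescence was read at 485/528 nm on a Synergy Neo2, and FITC standard curves were prepared in 50 mM sodium borate pH 8.5. Reactions of 1 μL combined BL21 Star (DE3) PANOx-SP extract, pPbrR-sfGFP reporter, 30 μg/mL GamS and linear PbrR templates (PCR-made, Echo-normalized to 5 nM), with 1 µM lead chloride, 30 µM zinc acetate or no metal, for 15 hr at 30 °C.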

[2] = variants of: B1; assay: sfGFP reporter fluorescence (15 h) (µM FITC); higher = stronger transcriptional activation; settings: library round: Round 0
Summary of the method: as §1

Variant	sfGFP reporter fluorescence [1]	sfGFP reporter fluorescence ([2]; ligand: 1 µM Pb)	sfGFP reporter fluorescence ([2]; ligand: 30 µM Zn)
MNIQIGELAKRTACPVVTIRFYEQEGLLPPPGRSRGNFRLYGEEHVERLQFIRHCRSLDLNLSDVRTLLSYRKRPDQDCGEVNMLLDEHIRQVESRIGALLELKHHLVELREACSGARPAQSCGILQGLSDCVCDTRGTTAHPSD	0.25 ± 0.0062	1.01 ± 0.48	3.5 ± 0.044
MNIQIGELAKRTACPVVTIRFYEQEGLLPPPGRSRGNFRLYGEEHVERLQFIRHCRSLDLNLSKVRTLLSYRKRPDQDCGEVNMLLDEHIRQVESRIGALLELKHHLVELREACSGARPAQSCGILQGLSDCVCDTRGTTAHPSD	0.611 ± 0.025	1.74 ± 0.19	3.74 ± 0.11
MNIQIGELAKRTACPVVTIRFYEQEGLLPPPGRSRGNFRLYGEEHVERLQFIRHCRSLDLNLSKVRTLLSYRKRPDQDCGEVNMLLDEHIRQVESRIGALLELKHHLVELREACSGARPAQSCGILQILSDCVCDTRGTTAHPSD	0.944 ± 0.037	3.29 ± 0.078	3.77 ± 0.81
MNIQIGELAKRTACPVVTIRFYEQEGLLPPPGRSRGNFRLYGEEHVERLQFIRHCRSLDLNLSKVRTLLSYRKRPDQDCGEVNMLLDEHIRQVESRIGALLELKHHLVELREACSGARPAQSCGILQMLSDCVCDTRGTTAHPSD	1.99 ± 0.056	3.91 ± 0.25	4.405 ± 0.006
MNIQIGELAKRTACPVVTIRFYEQEGLLPPPGRSRGNFRLYGEEHVERLQFIRHCRSLDLNLSKVRTLLSYRKRPDQDCGEVNMLLDEHIRQVESRIGALLELVHHLVELREACSGARPAQSCGILQGLSDCVCDTRGTTAHPSD	0.366 ± 0.0044	1.11 ± 0.035	3.03 ± 0.15
MNIQIGELAKRTACPVVTIRFYEQEGLLPPPGRSRGNFRLYGEEHVERLQFIRHCRSLDLNLSKVRTLLSYRKRPDQDCGEVNMLLDEHIRQVESRIGALLELVHHLVELREACSGARPAQSCGILQILSDCVCDTRGTTAHPSD	0.345 ± 0.029	0.915 ± 0.075	2.39 ± 0.063
MNIQIGELAKRTACPVVTIRFYEQEGLLPPPGRSRGNFRLYGEEHVERLQFIRHCRSLDLNLSKVRTLLSYRKRPDQDCGEVNMLLDEHIRQVESRIGALLELKHHCVELREACSGARPAQSCGILQGLSDCVCDTRGTTAHPSD	3.0399 ± 0.0023	4.3 ± 0.33	4.24 ± 0.28
MNIQIGELAKRTACPVVTIRFYEQEGLLPPPGRSRGNFRLYGEEHVERLQFIRHCRSLDLNLSDVRTLLSYRKRPDQDCGEVNMLLDEHIRQVESRIGALLELKHHLVELREACSGARPAQSCGILQILSDCVCDTRGTTAHPSD	0.436 ± 0.043	1.55 ± 0.032	3.7563 ± 0.0021
MNIQIGELAKRTACPVVTIRFYEQEGLLPPPGRSRGNFRLYGEEHVERLQFIRHCRSLDLNLSDVRTLLSYRKRPDQDCGEVNMLLDEHIRQVESRIGALLELKHHLVELREACSGARPAQSCGILQMLSDCVCDTRGTTAHPSD	0.822 ± 0.13	1.91 ± 0.38	3.32 ± 0.64
MNIQIGELAKRTACPVVTIRFYEQEGLLPPPGRSRGNFRLYGEEHVERLQFIRHCRSLDLNLSDVRTLLSYRKRPDQDCGEVNMLLDEHIRQVESRIGALLELVHHLVELREACSGARPAQSCGILQGLSDCVCDTRGTTAHPSD	0.153 ± 0.0062	0.413 ± 0.017	1.56 ± 0.039
MNIQIGELAKRTACPVVTIRFYEQEGLLPPPGRSRGNFRLYGEEHVERLQFIRHCRSLDLNLSDVRTLLSYRKRPDQDCGEVNMLLDEHIRQVESRIGALLELVHHLVELREACSGARPAQSCGILQILSDCVCDTRGTTAHPSD	0.148 ± 0.0083	0.448 ± 0.098	1.76 ± 0.23
MNIQIGELAKRTACPVVTIRFYEQEGLLPPPGRSRGNFRLYGEEHVERLQFIRHCRSLDLNLSDVRTLLSYRKRPDQDCGEVNMLLDEHIRQVESRIGALLELVHHLVELREACSGARPAQSCGILQMLSDCVCDTRGTTAHPSD	0.547 ± 0.013	1.69 ± 0.41	3.84 ± 0.1
MNIQIGELAKRTACPVVTIRFYEQEGLLPPPGRSRGNFRLYGEEHVERLQFIRHCRSLDLNLSDVRTLLSYRKRPDQDCGEVNMLLDEHIRQVESRIGALLELVHHCVELREACSGARPAQSCGILQGLSDCVCDTRGTTAHPSD	0.535 ± 0.018	1.66 ± 1.4	3.35 ± 0.1
MNIQIGELAKRTACPVVTIRFYEQEGLLPPPGRSRGNFRLYGEEHVERLQFIRHCRSLDLNLSDVRTLLSYRKRPDQDCGEVNMLLDEHIRQVESRIGALLELKHHCVELREACSGARPAQSCGILQGLSDCVCDTRGTTAHPSD	1.39 ± 0.39	2.42 ± 0.21	5.07 ± 0.26

Source: the supplement of paper PMC12783771
